Test results published in patent publication US20150079112A1 (SAMSUNG ELECTRONICS, published 2015).

B2: FLAG-tagged hAng2 (ligand)
chain: YNNFRKSMDSIGKKQYQVQHGSCSYTFLLPEMDNCRSSSSPYVSNAVQRDAPLEYDDSVQRLQVLENIMENNTQWLMKLENYIQDNMKKEMVEIQQNAVQNQTAVMIEIGTNLLNQTAEQTRKLTDVEAQVLNQTTRLELQLLEHSLSTNKLEKQILDQTSEINKLQDKNSFLEKKVLAMEDKHIIQLQSIKEEKDQLQVLVSKQNSIIEELEKKIVTATVNNSVLQKQQHDLMETVNNLLTMMSTSNSAKDPTVAKEEQISFRDCAEVFKSGHTTNGIYTLTFPNSTEEIKAYCDMEAGGGGWTIIQRREDGSVDFQRTWKEYKVGFGNPSGEYWLGNEFVSQLTNQQRYVLKIHLKDWEGNEAYSLYEHFYLSSEELNYRIHLKGLTGTAGKISSISQPGNDFSTKDGDNDKCICKCSQMLTGGWWFDACGPSNLNGMYYPQRQNTNKFNGIKWYYWKGSGYSLKATTMMIRPADF
notes: not shown: FLAG tag

Columns and labels:
[1] = molecular target: B2; experiment: competition ELISA: antibody titrated with FLAG-tagged hAng2 (400 ng/ml) on coated hTie2-Fc, bound Ang2 detected with anti-FLAG-HRP; blocked ligand pair Ang2-Tie2
Description: (§1) More specifically, MaxiSorp™ flat-bottom plate (Nunc) of 96-well was coated with hTie2-Fc (R&D Systems) which is a protein bound with 4 ug (microgram)/ml of Fc of human IgG1. After that, the plate was washed five times with 0.05% (v/v) Tween-20-containing PBS (phosphate buffer saline) and then blocked with 1% (v/v) BSA (bovine serum albumin; Sigma)-containing PBS at a room temperature for 2 hour.
For Ang2:Tie2 competition ELISA, each anti-Ang2 antibody obtained in Example 2 was placed at various concentrations of 400 nM to 0.001 nM into each well coated with the hTie-2/Fc fusion protein along with 1% (v/v) BSA and 400 ng/ml of a FLAG-tagged hAng2 and then, the plate was allowed to react at a room temperature for 2 hours and washed five times with PBST. After that, an anti-FLAG antibody (Sigma) conjugated with HRP diluted in 1% (v/v) BSA-containing PBS at a ratio of 1:5,000 (v/v) was added in an amount of 100 ul (microliter) to each well to react at a room temperature for 1 hour and then, the plate was washed five times with PBST. Lastly, 100 ul (microliter) of TMB substrate (Cell Signaling) was added to each well of the plate to induce color development for 3 min. and then, the reaction was ceased by the addition of 100 ul of Stop solution (Cell Signaling) and OD450 values were measured on a plate reader (Molecular Devices). […]

[2] = molecular target: T1, hTie2-Fc (R&D Systems) (human, UniProt Q02763 23-745); experiment: competition ELISA: FLAG-tagged hAng2 (400 ng/ml) bound to coated hTie2-Fc in the presence of titrated 10D6, detected with anti-FLAG-HRP
T1 construct: also called hTie-2/Fc fusion protein; not shown: Fc of human IgG1
T1 sequence (Q02763 23-745 limits assumed): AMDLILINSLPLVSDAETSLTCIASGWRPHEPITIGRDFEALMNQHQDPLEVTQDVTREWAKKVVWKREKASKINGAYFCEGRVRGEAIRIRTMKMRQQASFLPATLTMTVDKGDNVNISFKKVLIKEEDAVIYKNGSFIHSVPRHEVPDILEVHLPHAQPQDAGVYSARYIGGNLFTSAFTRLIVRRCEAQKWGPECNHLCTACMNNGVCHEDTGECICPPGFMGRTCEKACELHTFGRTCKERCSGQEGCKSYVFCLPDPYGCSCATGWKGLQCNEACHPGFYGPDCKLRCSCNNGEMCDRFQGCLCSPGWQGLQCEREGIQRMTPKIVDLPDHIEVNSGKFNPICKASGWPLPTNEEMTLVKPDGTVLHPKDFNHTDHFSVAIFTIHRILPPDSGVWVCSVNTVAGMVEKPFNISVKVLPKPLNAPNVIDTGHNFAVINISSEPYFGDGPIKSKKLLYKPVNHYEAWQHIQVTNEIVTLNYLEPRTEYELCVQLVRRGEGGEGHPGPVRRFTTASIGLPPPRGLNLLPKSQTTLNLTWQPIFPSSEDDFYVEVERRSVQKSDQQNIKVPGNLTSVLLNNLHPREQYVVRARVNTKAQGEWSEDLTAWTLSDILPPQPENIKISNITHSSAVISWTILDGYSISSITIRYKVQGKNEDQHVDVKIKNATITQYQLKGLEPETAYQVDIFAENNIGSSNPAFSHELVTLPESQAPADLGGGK
Description: as §1
For Ang2:Tie2 competition ELISA, each anti-Ang2 antibody obtained in Example 2 was placed at various concentrations of 400 nM to 0.001 nM into each well coated with the hTie-2/Fc fusion protein along with 1% (v/v) BSA and 400 ng/ml of a FLAG-tagged hAng2 and then, the plate was allowed to react at a room temperature for 2 hours and washed five times with PBST. After that, an anti-FLAG antibody (Sigma) conjugated with HRP diluted in 1% (v/v) BSA-containing PBS at a ratio of 1:5,000 (v/v) was added in an amount of 100 ul (microliter) to each well to react at a room temperature for 1 hour and then, the plate was washed five times with PBST. Lastly, 100 ul (microliter) of TMB substrate (Cell Signaling) was added to each well of the plate to induce color development for 3 min. and then, the reaction was ceased by the addition of 100 ul of Stop solution (Cell Signaling) and OD450 values were measured on a plate reader (Molecular Devices).

[3] = molecular target: T1, hTie2-Fc (R&D Systems); experiment: ELISA, coated Tie2-Fc 4 ug/ml, Ang2 0.25 ug/ml and 10D6 2 ug/ml added, anti-mouse IgG-HRP, OD450
Description: A 96-well MaxiSorp™ flat-bottom plate (Nunc) was coated with 4 ug/ml of Tie2-Fc (R&D systems) or BSA (Sigma). Then, the plate was washed five times with 0.05% (v/v) Tween-20-containing PBS (Phosphate Buffer Saline) and blocked with 1% (v/v) BSA (Bovine serum albumin; Sigma)-containing PBS at a room temperature for 2 hours. 0.25 ug/ml of Ang2 and 2 ug/ml of antibody 10D6 were added to each well of the plate, which was allowed to react at a room temperature for 2 hours and then washed five times with PBST. After that, an anti-mouse IgG antibody (Sigma) conjugated with HRP diluted in 1% (v/v) BSA-containing PBS at a ratio of 1:5,000 (v/v) was added in an amount of 100 ul to each well to react at a room temperature for 1 hour and then, the plate was washed five times with PBST. Lastly, 100 ul (microliter) of TMB substrate (Cell Signaling) was added to each well of the plate to induce color development for 3 min. and then, the reaction was ceased by the addition of 100 ul of Stop solution (Cell Signaling) and OD450 values were measured on a plate reader (Molecular Devices).

B1: 4H10 (antibody, V domains shown)
VH: EVQLLESGGGLVQPGGSLRLSCAASGFTFSSYDMSWVRQAPGKGLEWVSLISPDSSSIYYADSVKGRFTISRDNSKNTLYLQMNSLRAEDTAVYYCAKDLISFWRGGFDYWGQGTLVTVSS
VL: QSVLTQPPSASGTPGQRVTISCSGSSSNIGSNYVNWYQQLPGTAPKLLIYADSNRPSGVPDRFSGSKSGTSASLAISGLRSEDEADYYCGSWDYSLSGYVFGGGTKLTVLG
notes: also called antibody 4H10
- IC50 (read off the curve) [1]: ~0.2 nM

Binder: B2
- binding result [2]: binds

B3: Ang2 protein (R&D systems) (ligand)
chain: YNNFRKSMDSIGKKQYQVQHGSCSYTFLLPEMDNCRSSSSPYVSNAVQRDAPLEYDDSVQRLQVLENIMENNTQWLMKLENYIQDNMKKEMVEIQQNAVQNQTAVMIEIGTNLLNQTAEQTRKLTDVEAQVLNQTTRLELQLLEHSLSTNKLEKQILDQTSEINKLQDKNSFLEKKVLAMEDKHIIQLQSIKEEKDQLQVLVSKQNSIIEELEKKIVTATVNNSVLQKQQHDLMETVNNLLTMMSTSNSAKDPTVAKEEQISFRDCAEVFKSGHTTNGIYTLTFPNSTEEIKAYCDMEAGGGGWTIIQRREDGSVDFQRTWKEYKVGFGNPSGEYWLGNEFVSQLTNQQRYVLKIHLKDWEGNEAYSLYEHFYLSSEELNYRIHLKGLTGTAGKISSISQPGNDFSTKDGDNDKCICKCSQMLTGGWWFDACGPSNLNGMYYPQRQNTNKFNGIKWYYWKGSGYSLKATTMMIRPADF
notes: It may be the same product as the C-His hAng2 of the SPR; also called human Ang2 protein (R&D systems; 623-AN-025/CF)
- binding result [3]: binds
